# Measurements as given in a protein production outcome set (Wang et al. 2014).
# Assay: label from the status in PepcDB records
# 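Further: failed if final PepcDB status was selected cloned or expressed and not failed if soluble or beyond.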
row,Sequence,protein production
1,MEASRNRSLVGNNRSPEMNENDGEDVAASAAVEDVEVWDTLSNGFKRAQLYLDQNRDLIQRVNENHMSRIPDNVSRNVGLINEINGNISQVMEIYSDLSLNFAKKFDQRRRTTKDGDTTTTTTGS,failed
2,MECDRISTLPDHLVAKIVSYLGIKDSIKTSVLSKRWEFVWLKVVGLDLKNCDFPPNGIASQMVVNKYMEFNSGLHMQYFKVNFGGNTVCTNRFLEWIATAVDRGVQHLDAENKNPVIIKEFMPKKIYKSKTLVSLKLAIKIFLKARHFISVFIVLQGQSIVQFSSRCGTFS,not failed
3,MECKTMERITVNLGERSYPISIGAGLFANPALLSLSAKQKVVIVTNHTVAPLYAPAIISLLDHIGCQHALLELPDGEQYKTLETFNTVMSFLLEHNYSRDVVVIALGGGVIGDLVGFAAACYQRGVDFIQIPTTLLSQVDSSVGGKTAVNHPLGKNMIGAFYQPKAVVIDTDCLTTLPAREFAAGMAEVIKYGIIYDSAFFDWLEAQMEALYALDEQALTYAIARCCQIKAEVVAQDEKESGIRALLNLGHTFGHAIEAHMGYGNWLHGEAVSAGTVMAAKTAQLQGLIDASQFERILAILKKAHLPVRTPENMTFADFMQHMMRDKKVLAGELRLVLPTSIGTSAVVKGVPEAVIAQAIEYCRTV,not failed
4,MECPFVSVVVGIRNEERYIEECIESLLRLDYPQDSYEIIIVDGMSTDRTRELVQKYPVRLLLNERKNVAAARNLGVQNSMGDFVAFTDGDCKADPLWLKTLVTEMKNAPEDVVCVGGPNLIFDTDPVFGRVVGHAQETFLGSGGSAQSKNSLKKHYVSSLPNCNAMYKKNTIIEAGYFDERFVVGQDGDLNYRINKKGYKFLYIPEAIVLHHRRGTLKSFSVRMFKYGMWMGELFKKHGELVRWYAILPSVAILFSVFSLIISPVYTTPIIVLLLMGFLYLILVFIASIQVIFKMKSKYGLYALVVIPVQHITYGMGFLYSFANSLYKSKGVSSSIVQN,failed
5,MEDGMNTFDLYYWPVPFRGQLIRGILAHCGCSWDEHDVDAIEGLMDCGAEKQPVAFMGPPVLIDRERNFAISQMPAIAIYLGERLDILPATVEGRTLSAKIVNDANDVLDELTLNGGREMWTPEKWQEFVPRLQKWIRIFADTGARNGLSAASGFMLGTEKIGVADIVTAILWTTVADRFPAIKGIIEDTSPIIWGLSRRVVATAPLAALNSKSFEEYGNAYCGGEIEKSLRKVAS,not failed
6,MEDIEYLDEYKDLVLPGIKSSAPTASSAGVPRQRRISSDSSNSSSIDADIFQKLFHGKYLDDELLKEGSGSKSQDRRRRPPSPSSSDESNDALEALFCGK,failed
7,MEDIIFGKRSNVFDVNPENTVFVLIAGTSEVSTVPGITSAGATPELTRLTPAIDSEIIGEGKCLSSKDPPMTPEGIPTPAIVTKAILSLTNIRYIIVNGGFYAKPKTPFIETGLKPSNNPAVKTAIEDLDAAIHAGEHIGRLLDGVFENIILAESVPGGTTTAYAVLKAIGINAKTSSSMKEDPFSIKEKIAEMSFRRKLEKSPLGAVKEYGDNMMAVSLGISSSVKRSKIIFGGGTQMATVMYLDRLINGMRDRYISTTGWVYYHRTELFSDLGLSDYLAVSAMDFSGMKHPGLRYYQYGHVREGTGMGAAFLLARLMNFEAEAIYKSVDDFYEQFI,failed
8,MEDLTASVTNRTVSLPLSCVTTDFGLGVIYASKNQESKTTREKPMLVTLNSSLEHTYQKDFKSLREILSRKVAWQTEAVNAISQIICGCKTDSTRRNQASGIWLALLGPDKVGKKKVAMTLSEVFFGGKVNYICVDFGAEHCSLDDKFRGKTVVDYVTGELSRKPHSVVLLENVEKAEFPDQMRLSEAVSTGKIRDLHGRVISMKNVIVVVTSGIAKDNATDHVIKPVKFPEEQVLSARSWKLQIKLGDATKFGVNKRKYELETAQRAVKVQRSYLDLNLPVNETEFSPDHEAEDRDAWFDEFIEKVDGKVTFKPVDFDELAKNIQEKIGSHFERCFGSETHLELDKEVILQILAASWSSLSSGEEEGRTIVDQWMQTVLARSFAEAKQKYGSNPMLGVKLVASSSGLASGVELPAKVDVIW,failed
